Columns and labels:
[1] = molecular target: T1, biotinylated human erythrocyte β-spectrin repeats 12–17 (human, UniProt P11277 1486-2083, biotin (biotinylated; site not stated)); assay: SPR
T1 sequence (looked up): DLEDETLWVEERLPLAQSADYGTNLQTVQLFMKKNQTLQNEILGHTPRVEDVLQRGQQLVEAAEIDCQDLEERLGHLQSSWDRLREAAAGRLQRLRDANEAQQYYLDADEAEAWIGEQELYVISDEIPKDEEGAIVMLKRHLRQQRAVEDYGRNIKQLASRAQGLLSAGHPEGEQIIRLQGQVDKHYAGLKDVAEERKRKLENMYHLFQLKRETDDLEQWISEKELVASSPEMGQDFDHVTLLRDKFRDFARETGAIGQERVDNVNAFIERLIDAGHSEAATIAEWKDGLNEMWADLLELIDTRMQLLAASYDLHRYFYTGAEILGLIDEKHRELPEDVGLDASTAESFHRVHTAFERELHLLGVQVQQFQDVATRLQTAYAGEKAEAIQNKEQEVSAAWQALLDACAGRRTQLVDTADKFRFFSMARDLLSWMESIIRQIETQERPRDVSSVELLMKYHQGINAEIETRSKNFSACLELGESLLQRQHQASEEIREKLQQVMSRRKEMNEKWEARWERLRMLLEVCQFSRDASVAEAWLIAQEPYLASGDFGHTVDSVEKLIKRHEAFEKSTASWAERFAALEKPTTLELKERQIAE

SEC = molecular target: the molecule itself; assay: SEC

B1: ZU5A-ZU5B fragment of human erythrocyte ankyrin (ankyrin-R), residues 911–1233 (domain or fragment, UniProt P16157 911-1233, looked up)
chain: TGFLVSFMVDARGGSMRGSRHNGLRVVIPPRTCAAPTRITCRLVKPQKLSTPPPLAEEEGLASRIIALGPTGAQFLSPVIVEIPHFASHGRGDRELVVLRSENGSVWKEHRSRYGESYLDQILNGMDEELGSLEELEKKRVCRIITTDFPLYFVIMSRLCQDYDTIGPEGGSLKSKLVPLVQATFPENAVTKRVKLALQAQPVPDELVTKLLGNQATFSPIVTVEPRRRKFHRPIGLRIPLPPSWTDNPRDSGEGDTTSLRLLCSVIGGTDQAQWEDITGTTKLVYANECANFTTNVSARFWLSDCPRTAEAVNFATLLYKEL
- Kd [1]: 8.3 nM

B2: Ankyrin-R Death domain (DD), residues 1394–1497 (domain or fragment, human, UniProt P16157 1394-1497, looked up)
chain: PGSLSGTEQAEMKMAVISEHLGLSWAELARELQFSVEDINRIRVENPNSLLEQSVALLNLWVIREGQNANMENLYTALQSIDRGEIVNMLEGSGRQSRNLKPDR
- stoichiometry N (SEC): 2
